# Assay results reported in patent publication US20010010923A1, “MODIFIED CARBOXYPEPTIDASE” (priority 1997, published 2001).
# Where a chain is given by its changes, count along the chain named. Names and notes keep the numbering of the source. Marks after values point to notes of the source that are not given here.
# B1: N51Q + L178S + M398L: carboxypeptidase Y mutant N51Q + L178S + M398L (protein, UniProt P00729 112-532, looked up, variant N51Q L178S M398L)
# Carboxypeptidase Y: KIKDPKILGIDPNVTQYTGYLDVEDEDKHFFFWTFESRNDPAKDPVILWLQGGPGCSSLTGLFFELGPSSIGPDLKPIGNPYSWNSNATVIFLDQPVNVGFSYSGSSGVSNTVAAGKDVYNFLELFFDQFPEYVNKGQDFHIAGESYAGHYIPVFASEILSHKDRNFNLTSVLIGNGSTDPLTQYNYYEPMACGEGGEPSVLPSEECSAMEDSLERCLGLIESCYDSQSVWSCVPATIYCNNAQLAPYQRTGRNVYDIRKDCEGGNLCYPTLQDIDDYLNQDYVKEAVGAEVDHYESCNFDINRNFLFAGDWMKPYHTAVTDLLNQDLPILVYAGDKDFICNWLGNKAWTDVLPWKYDEEFASQKVRNWTASITDEVAGEVKSYKHFTYLRVFNGGHLVPFDVPENALSMVNEWIHGGFSL
# B2: L178S + W312N: carboxypeptidase Y combination mutant L178S + W312N (protein, UniProt P00729 112-532, looked up, variant L178S W312N)
# Carboxypeptidase Y: B1 Carboxypeptidase Y with Q51N, W312N, L398M
# B3: M398R: carboxypeptidase Y S1' mutant, substitution M398R (protein, UniProt P00729 112-532, looked up, variant M398R)
# Carboxypeptidase Y: B1 Carboxypeptidase Y with Q51N, S178L, L398R
# B4: L178D + W312N: carboxypeptidase Y combination mutant L178D + W312N (protein, UniProt P00729 112-532, looked up, variant L178D W312N)
# Carboxypeptidase Y: B1 Carboxypeptidase Y with Q51N, S178D, W312N, L398M
# B5: W312L: carboxypeptidase Y S1 mutant, substitution W312L (protein, UniProt P00729 112-532, looked up, variant W312L)
# Carboxypeptidase Y: B1 Carboxypeptidase Y with Q51N, S178L, W312L, L398M
# B6: L178D + W312D: carboxypeptidase Y combination mutant L178D + W312D (protein, UniProt P00729 112-532, looked up, variant L178D W312D)
# Carboxypeptidase Y: B1 Carboxypeptidase Y with Q51N, S178D, W312D, L398M
# B7: W312N: carboxypeptidase Y S1 mutant, substitution W312N (protein, UniProt P00729 112-532, looked up, variant W312N)
# Carboxypeptidase Y: B1 Carboxypeptidase Y with Q51N, S178L, W312N, L398M
# B8: L178D: carboxypeptidase Y S1 mutant, substitution L178D (protein, UniProt P00729 112-532, looked up, variant L178D)
# Carboxypeptidase Y: B1 Carboxypeptidase Y with Q51N, S178D, L398M
# B9: T60E: carboxypeptidase Y S1' mutant, substitution T60E (protein, UniProt P00729 112-532, looked up, variant T60E)
# Carboxypeptidase Y: B1 Carboxypeptidase Y with Q51N, T60E, S178L, L398M
# B10: N51Q + L178S: carboxypeptidase Y mutant N51Q + L178S (S1' and S1 subsites) (protein, UniProt P00729 112-532, looked up, variant N51Q L178S)
# Carboxypeptidase Y: B1 Carboxypeptidase Y with L398M
# Key:
# Format in all cases: biochemical
# [1] = Transpeptidation of Bz-G-A-R-A-R-X-OH at pH 7.5 at 50% substrate consumption, Table 4; design: key to fa: fraction: aminolysis product / sum of all products formed; conditions: for fa / t: 50% substrate consumption; for t: 375 mM H-Leu-NH2, 2 mM substrate, [E] 0.1 mg/mL
# Procedure: Transamidation reactions were carried out generally as described in PCT Application WO 95/20039. In general, the method included dissolving the nucleophile (H-Leu-NH2, unless otherwise indicated) in 50 mM HEPES, 5 mM EDTA and adjusting the pH to 7.5, 5 μl of peptide substrate (8 mM Bz-G-A-R-A-R-A-OH, unless otherwise indicated, in methanol) was added to 190 μl nucleophile solution followed by 5 μl enzyme, resulting in a substrate concentration of 0.2 mM.
# (§1) During the reaction, 20 μl aliquots were removed from the reaction mixture and added to 50 μl 1% trifluoroacetic acid to quench the reaction. The reactant composition was determined by HPLC using a Waters HPLC equipped with a C-18 Waters Novapac 4μ reverse phase column and various gradients of acetonitrile in 0.1% trifluoroacetic acid. The separation was monitored at 254 nm allowing the direct quantification of the products from the integrated peak areas. The composition of the reaction mixture was determined at least twvice during the reaction, the first when 20-50% (preferably 35%) of the substrate had been consumed in the reaction and the second time when 50-90% (preferably 80%) of the peptide substrate had been consumed.
# (§2) The fraction of aminolysis (fa) was expressed as the ratio between the formed aminolysis product and the sum of all products formed. Unconsumed substrate was disregarded in the calculations.
# Site specific mutagenesis was performed as described for Example 1 to generate the specific mutants described below. Transamidation reactions were performed as described for Examples 1.
# [2] = Transpeptidation of Bz-G-A-R-A-R-X-OH at pH 6.5 at 50% substrate consumption, Table 5; design: key to fa: fa = aminolysis product / sum of all products formed; conditions: for Pmax (peak product yield) / fa: 750 mM H-Leu-NH2; for fa / t: 50% substrate consumption; for t: 750 mM H-Leu-NH2, 2 mM substrate, [E] 0.1 mg/mL
# Procedure: Transamidation reactions were carried out generally as described in PCT Application WO 95/20039. In general, the method included dissolving the nucleophile (H-Leu-NH2, unless otherwise indicated) in 50 mM HEPES, […], 5 μl of peptide substrate (8 mM Bz-G-A-R-A-R-A-OH, unless otherwise indicated, in methanol) was added to 190 μl nucleophile solution followed by 5 μl enzyme, resulting in a substrate concentration of 0.2 mM.
# as §1
# The fraction of aminolysis (fa) was expressed as the ratio between the formed aminolysis product and the sum of all products formed. Unconsumed substrate was disregarded in the calculations. […]
# [3] = Transpeptidation of Bz-G-A-R-A-R-A-OH (arginine at P1) with H-Leu-NH2, Table 1; conditions: [N] 375 mM H-Leu-NH2; 2mM substrate; pH 7.5; [E] 0.1 mg/mL
# Procedure: The mutant carboxypeptidase enzvmes used in these studies were produced by site-directed mutagenesis, essentially following the procedures described in published PCT Patent Application No. WO 95/20039. In general, oligonucleotides synthesized to encode the amino acid substitution were used to produce the mutant enzymes.
# Transamidation reactions were carried out generally as described in PCT Application WO 95/20039. In general, the method included dissolving the nucleophile (H-Leu-NH2, unless otherwise indicated) in 50 mM HEPES, 5 mM EDTA and adjusting the pH to 7.5, 5 μl of peptide substrate (8 mM Bz-G-A-R-A-R-A-OH, unless otherwise indicated, in methanol) was added to 190 μl nucleophile solution followed by 5 μl enzyme, […]
# as §1
# The reaction products were collected and identified by amino acid analysis after acid hydrolysis using a Pharmacia Alpha Plus analyzer. Further identification was obtained by co-chromatography of authentic standard compounds.
# as §2
# [4] = Transpeptidation of FA-Ala-OBzl with H-Leu-NH2, Table 3; conditions: FA-Ala-OBzl 0.2 mM, pH 7.5; for fa: H-Leu-NH2; for KN(app): nucleophile H-Leu-NH2 concentration at which fa is half of maximum
# Method in brief: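 Site-directed mutant enzymes were reacted with H-Leu-NH2 in 50 mM HEPES, 5 mM EDTA, pH 7.5, with acyl-donor substrate at 0.2 mM final. Products were quantified by C-18 RP-HPLC at 254 nm at about 35% and 80% substrate consumption. fa is aminolysis product over all products; famax is fa at nucleophile saturation, and KN(app) is the nucleophile concentration giving famax/2.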
# [5] = Transpeptidation of FA-Ala-Xaa-OH with H-Gly-NH2, Table 2; conditions: 1.9 M H-Gly-NH2, pH 7.5, room temperature; for Fraction of aminolysis (fa), P1' Ala: FA-Ala-Ala-OH 0.2 mM; for Fraction of aminolysis (fa), P1' Leu: FA-Ala-Leu-OH 0.2 mM; for Fraction of aminolysis (fa), P1' Met: FA-Ala-Met-OH 0.2 mM; for Fraction of aminolysis (fa), P1' Phe: FA-Ala-Phe-OH 0.2 mM; for Fraction of aminolysis (fa), P1' Val: FA-Ala-Val-OH 0.2 mM
# Method in brief: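 Enzyme reacted with 0.2 mM peptide substrate and nucleophile in 50 mM HEPES, 5 mM EDTA, pH 7.5; aliquots quenched in 1% TFA. Products quantified by reverse-phase HPLC at 254 nm at two conversion points (20-50% and 50-90% substrate consumed). Fraction of aminolysis = aminolysis product over all products, ignoring unconsumed substrate.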
# [6] = leaving group A, 375 mM H-Leu-NH2
# [7] = leaving group I, 375 mM H-Leu-NH2
# [8] = leaving group L, 375 mM H-Leu-NH2
# [9] = leaving group M, 375 mM H-Leu-NH2
# [10] = leaving group V, 375 mM H-Leu-NH2
molecule,measurement,setting,value
B1,"fraction of aminolysis for leucine as a leaving group, in words",[1],improved
same,Pmax (peak product yield),[1]; [6],>0.67
same,fa,[1]; [6],0.87
same,t,[1]; leaving group A,24 min
same,fa,[1]; [7],0.82
same,t,[1]; leaving group I,129 min
same,Pmax (peak product yield),[1]; [8],>0.73
same,Pmax (peak product yield),"[1]; leaving group L, 375 mM H-Leu-NH2, listed as N51Q+L178S+M398L",0.73
same,fa,[1]; [8],0.76
same,t,[1]; leaving group L,52 min
same,fa,[1]; [9],0.75
same,t,[1]; leaving group M,84 min
same,fa,[1]; [10],0.82
same,t,[1]; leaving group V,168 min
same,Pmax (peak product yield),[2]; leaving group A,0.70
same,fa,[2]; leaving group A,0.91
same,t,[2]; leaving group A,194 min
same,Pmax (peak product yield),[2]; leaving group L,0.80
same,fa,[2]; leaving group L,0.84
same,t,[2]; leaving group L,36 min
B2,fa (fraction of aminolysis),[3],0.63
B3,fa,[4],0.39^b
same,KN(app),[4],9.9^c mM
same,"Fraction of aminolysis (fa), P1' Ala",[5],0.48
same,"Fraction of aminolysis (fa), P1' Leu",[5],0.16
same,"Fraction of aminolysis (fa), P1' Met",[5],0.33
same,"Fraction of aminolysis (fa), P1' Phe",[5],0.11
same,"Fraction of aminolysis (fa), P1' Val",[5],0.26
B4,fa (fraction of aminolysis),[3],0.71
B5,fa (fraction of aminolysis),[3],0.07
B6,fa (fraction of aminolysis),[3],0.71
B7,fa (fraction of aminolysis),[3],0.23
B8,fa (fraction of aminolysis),[3],0.81
B9,fa,[4],0.94^a
same,KN(app),[4],2.0^b mM
same,"Fraction of aminolysis (fa), P1' Ala",[5],0.82
same,"Fraction of aminolysis (fa), P1' Leu",[5],0.05
same,"Fraction of aminolysis (fa), P1' Met",[5],0.07
same,"Fraction of aminolysis (fa), P1' Phe",[5],0.02
same,"Fraction of aminolysis (fa), P1' Val",[5],0.33
B10,Pmax (peak product yield),[1]; [6],0.60
same,fa,[1]; [6],0.72
same,t,[1]; leaving group A,34 min
same,fa,[1]; [7],0.62
same,t,[1]; leaving group I,211 min
same,Pmax (peak product yield),[1]; [8],0.18
same,fa,[1]; [8],0.20
same,t,[1]; leaving group L,23 min
same,fa,[1]; [9],0.51
same,t,[1]; leaving group M,211 min
same,fa,[1]; [10],0.62
same,t,[1]; leaving group V,194 min
same,Pmax (peak product yield),[2]; leaving group A,0.78
same,fa,[2]; leaving group A,0.87
same,t,[2]; leaving group A,31 min
same,Pmax (peak product yield),[2]; leaving group L,0.26
same,fa,[2]; leaving group L,0.28
same,t,[2]; leaving group L,19 min
